Assays:
hippocampal neurons = test: Sholl analysis of isolated hippocampal neurons; assay type: cell-based, mouse; conditions: 1 μg/ml TIMP3, 72 hrs
Experimental: SH-SY5Y cells were obtained from ATCC (Cat# CRL-2266, Manassas, Va.) and were cultured in DMEM and 10% FBS up to passage 10. For differentiation of SH-SY5Y cells into a neuronal phenotype, cells were first plated in DMEEM+10% FBS for 24 hrs before exchanging media in DMEM+1% FBS 10 μM retinoic acid. Differentiation was performed for 3 days before experimentation. Hippocampal neurons were prepared according to the protocol by Beaudoin et al. (Nature Protocols 2012; 7(9):1741-1754) with minor modifications. In brief, after trypsin digestion of hippocampi isolated from P1 mouse pups single cell suspensions was created by trituration and plated onto Biocoat™ poly-D-lysine coated 12-well plates (Cat#354470, BD Biosciences, San Jose, Calif.). 2 pups were used per well and cell suspensions were incubated for 10 minutes per well for a total of 6 wells. The serial incubation allowed for variation in cell densities applicable to different experiments but also contributed to the reduction in non-neuronal cells. […]
Sholl analysis on processed images of isolated hippocampal neurons was conducted using the Fiji derivation of Image J. (Hypertext Transfer Protocol://Fiji.sc.Fiji). […] After neurites had been traced the images were rendered as an analyzed skeleton and Sholl analysis was run on the image from the Analyze menu option.

MMP-9 = MMP-9 (Homo sapiens, UniProt P14780); test: SensoLyte Fluorimetric MMP-9 Activity Assay; assay type: biochemical; conditions: dose response; 1 μg/ml TIMP3
MMP-9, sequence (P14780 94-707, species assumed): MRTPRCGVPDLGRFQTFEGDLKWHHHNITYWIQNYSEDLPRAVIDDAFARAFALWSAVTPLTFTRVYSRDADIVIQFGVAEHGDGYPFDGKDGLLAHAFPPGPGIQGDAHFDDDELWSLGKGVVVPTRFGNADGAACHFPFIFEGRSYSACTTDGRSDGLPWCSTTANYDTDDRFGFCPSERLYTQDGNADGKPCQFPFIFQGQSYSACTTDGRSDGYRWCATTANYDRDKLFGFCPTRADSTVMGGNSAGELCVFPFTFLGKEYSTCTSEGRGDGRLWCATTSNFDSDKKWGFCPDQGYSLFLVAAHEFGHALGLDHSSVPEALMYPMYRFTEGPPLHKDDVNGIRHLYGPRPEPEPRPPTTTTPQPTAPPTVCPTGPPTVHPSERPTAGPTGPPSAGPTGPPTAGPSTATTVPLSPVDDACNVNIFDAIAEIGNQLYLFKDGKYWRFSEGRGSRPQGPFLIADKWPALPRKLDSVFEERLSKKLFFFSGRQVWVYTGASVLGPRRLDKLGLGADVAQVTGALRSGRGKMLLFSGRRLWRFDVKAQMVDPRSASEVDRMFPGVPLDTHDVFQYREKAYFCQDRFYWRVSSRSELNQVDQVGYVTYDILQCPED
Description: SensoLyte Fluorimetric MMP-2 Activity Assay Kit™ (Cat#71151) and SensoLyte Fluorimetric MMP-9 Activity Assay Kit™ (Cat#71155) were purchased from AnaSpec (Fremont, Calif.) and performed per manufacturer's instructions.

B1: TIMP3: Recombinant tissue inhibitor of matrix metalloproteinase-3, a soluble protein released by MSCs, obtained from Amgen Inc. (protein)
chain: CTCSPSHPQDAFCNSDIVIRAKVVGKKLVKEGPFGTLVYTIKQMKMYRGFTKMPHVQYIHTEASESLCGLKLEVNKYQYLLTGRVYDGKMYTGLCNFVERWDQLTLSQRKGLNYRYHLGCNCKIKSCYYLPCFVTSKNECLWTDMLSNFGYPGYQSKHYACIRQKGGYCSWYRGWAPPDKSIINATDP
Hippocampal neurons
  neurite complexity (Sholl analysis): significantly increased neurite complexity
MMP-9
  MMP-9 inhibition (Sensolyte FRET assay): can fully inhibit
